B1: CPEB3 Ribozyme (parent)
chain: GGGGGCCACAGCAGAAGCGUUCACGUCGCGGCCCCUGUCAGAUUCUGGUGAAUCUGCGAAUUCUGCUGU

Variants of: B1
Test: self-cleavage, relative activity (ratio to wild type); higher = more cleavage; co-transcriptional

Variant	self-cleavage
A8G G68A	0.912
C7U G58A	0.928
C7U G58C	0.873
A8C G65U	0.676
A8C G65A	0.928
A8C C24U	0.753
A8C C24G	0.488
A8C U44C	0.896
A8C U44A	0.944
A8C C57G	0.446
A8C C57A	0.352
A8C C57U	0.357
A8G U36A	0.135
A8G	0.929
A8C	0.999
A8G A15C	0.0691
A8G A15U	0.144
C7U U20A	0.112
C7U U20C	0.158
A8G U20C	0.09
A8G U20G	0.0536
C7U G50U	0.96
C7U G50C	0.965
C7U C35U	0.947

Variant	self-cleavage
C7U U49G	0.993
C7U U49C	0.854
A8G A52U	0.803
A8G A52C	0.768
A8G A52G	0.902
A8G C34G	0.665
A8C G30A	0.951
A8C G30U	0.492
A8C G30C	0.758
A8G G17U	0.103
A8G G17A	0.0671
A8G G17C	0.0831
A8G U44C	0.55
A8G U38C	0.696
A8G A60G	0.393
A8G A60U	0.25
C7U U67G	0.959
C7U U67A	0.985
C7U U67C	0.982
C7U G48A	0.987
C7U G48U	0.966
C7U C54A	0.831
C7U C54U	0.967
C7U C39A	0.686

Variant	self-cleavage
C7U C39U	0.803
C7U C39G	0.911
A8C G58A	0.944
A8G G11U	0.189
A8G G11A	0.26
A8G G11C	0.0914
A8C C39U	0.947
A8C C39G	0.927
A8C C39A	0.848
A8C G28U	0.154
A8C G28C	0.122
A8G G50C	0.791
A8C A51U	1.01
A8C U21C	0.854
A8G C22G	0.0752
A8G C22A	0.136
A8G C22U	0.074
A8C U36C	0.819
A8C U36G	0.192
A8C U36A	0.205
A8C A15C	0.726
A8C A15U	0.873
A8G G31U	0.649
A8G G31A	0.865

Variant	self-cleavage
A8G G28C	0.102
A8G G28A	0.0955
A8G G28U	0.137
A8G G25A	0.113
A8G G25U	0.1
A8G G25C	0.0474
A8G U21C	0.584
A8G A16U	0.457
A8C C22A	0.163
A8C C22G	0.19
A8C C22U	0.22
C7U C66G	0.898
C7U U36C	0.806
C7U U36A	0.194
C7U U36G	0.166
C7U G68C	0.673
C7U G68A	0.971
C7U G28U	0.146
C7U G28C	0.197
C7U G65U	0.612
C7U G65C	0.604
C7U G65A	0.781
C7U G37U	0.214
A8G G19C	0.161

Variant	self-cleavage
A8G G19U	0.0891
A8C A42U	0.918
A8C A42G	0.939
A8G G47C	0.945
A8G G47U	0.92
A8G U43G	0.398
A8G U43A	0.401
A8C U67A	1.04
C7U C45A	0.919
C7U C45U	0.892
C7U C45G	1.02
A8G C33U	0.833
A8G C33A	0.73
A8C U64G	0.892
A8C U64C	0.86
A8C A10C	0.975
A8C A10U	0.966
A8C A10G	0.941
A8G G41A	0.222
A8G G41U	0.254
A8G G41C	0.304
C7U U21G	0.34
C7U U21A	0.967
A8C U62C	0.841

Variant	self-cleavage
A8C U62G	0.9
A8C U62A	0.898
A8C U69A	1.01
A8C U69G	1.04
A8G C45A	0.8
A8G C45U	0.8
C7U C33G	0.245
C7U C33A	0.656
C7U C33U	0.939
A8G C35G	0.341
A8G C35A	0.217
A8G C12A	0.175
A8G C12G	0.133
A8G C12U	0.444
A8G A23G	0.623
A8G A23U	0.858
A8G G58C	0.843
A8C U53C	0.902
A8C U53A	0.919
A8C U53G	0.89
A8G A59C	0.162
A8G A59G	0.897
A8G A59U	0.401
A8G G14U	0.0849

Variant	self-cleavage
A8G G14C	0.125
A8G G14A	0.13
A8C C32G	0.227
A8C C32U	0.954
C7U C27G	0.159
C7U C27A	0.289
C7U C27U	0.247
A8C A52G	0.974
A8C A52C	0.941
A8C A59U	0.821
A8C A59G	1
A8C G56C	0.83
A8C G56A	0.999
C7U G56U	0.849
C7U G56C	0.618
A8C A40U	0.868
A8C A40G	0.958
A8G A51C	0.706
A8G G48U	0.943
A8G G48A	0.939
A8C G19A	0.189
A8C G37A	0.207
A8C G37U	0.257

— the RNAGym collection of RNA variant scans (doi:10.7554/elife.80360)
